From US20250101091A1 come the findings set out here.

Usually EC50 (read off the curve) stands for the concentration needed to bring the measured effect to its halfway point.

Assay [1] addresses Cleaved cynomolgus monkey epiregulin (cynomolgus monkey). Kind of assay: cell-based or functional assay.
Assay [2] concerns the target Cleaved human epiregulin (human) (UniProt O14944). In words: cell-based or functional assay.
Assay [3] deals with Cleaved rabbit epiregulin (rabbit). Kind of assay: cell-based or functional assay.
For assay [4], the target named is Cleaved rat epiregulin (rat) (UniProt Q9Z0L5). In words: cell-based or functional assay.
Assay [5] concerns the target Cleaved human epiregulin (human) (UniProt O14944). Kind of assay: ELISA: biotinylated ligand (20 nM) captured on neutravidin plate, antibody titrated 1:3, anti-human kappa-AP detection, OD405 [panel B]. A general note: ELISA stands for enzyme-linked immunosorbent assay.
In assay [6] the target is TGFα (human) (UniProt P01135). The assay is described as above.

Turning to LY3016859 (antibody), the IC50, neutralization of epiregulin induced luciferase reporter activity in C166-AP1-Luciferase cells worked out at 8.6 nM in assay [1], 25.9 nM in assay [2], 11 nM in assay [3] and 720 nM in assay [4]. For the same substance, in assay [2], the IC50, neutralization of human epiregulin induced phospho-ERK induction in TGW cells was found to be 14.6 nM. For the same substance, the EC50 (read off the curve) is 0.03 µg/mL in assay [5] and 0.02 µg/mL in assay [6].
